Results on 41 sequences are retold here after the nanobody polyreactivity screen of Harvey et al. (2022).

A short description of the series: yeast display, Sf9 membrane polyspecificity reagent, FACS + sequencing; frameworks hold sequencing errors. In short, it runs like this:
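Nanobodies from a synthetic yeast display library (Saccharomyces cerevisiae BJ5465), induced 36–48 hours with galactose, were stained 1 hour at 4 °C with 10% biotinylated, detergent-solubilized Sf9 membrane reagent, enriched on streptavidin microbeads, then FACS-sorted. Anti-HA (expression) and streptavidin (reagent binding) fluorescence set low and high (top ~1%) gates. Polyreactivity labels come from the gate of origin. Genes were colony-PCR amplified, MiSeq 2 × 250 sequenced and filtered by CDR length.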
For “QVQLVESVGGLVQAGGSLRLSCAASVFNLKSNAMGWYRQATGKERELVAAISSSGGSTYYADSVKGRFTISRDNAKNTVYLQMNSLKPEDTAVYYCNVAQYLRARRPVDYWGHGTQVTVSS”, the “polyreactivity (PSR sort gate)” value is given as “high polyreactivity”.
Take “QVQLVESVGGLVQAGGSLRLSCAATGSTFGVNDMGWYRQSPGKERQFVADITTSGGSTYYADSVKWRFTISRDIAKNTVYLQMNSLKPEDTAVYYCAADLWPFEHDDYWGQGTQVTVSS”: the “polyreactivity (PSR sort gate)” value is “low polyreactivity”.
As for “QVQLVESVGGLVQAGGSLRLSCAGSGFTFLYYAMGWYRQAPGKERELVDTISKSGGSTYYADSVKGRFTISRDNAKNTDYLQMNSLKPEDTAVDYFAAVGPYRWYDYWGQGTQVTVSS”, the entry is “high polyreactivity”.
As for “QVQLVESVGGLVQAGGSLRLSCPTSGRIFTYYAMGWYRQAPGKERELVAAINSRGGSTYYADSVKGRFTISRDNAKNTVYLQMNSLKPEDSAVYYCAAVGLYSRYAYWGQGTQVSVSS”, the entry is “high polyreactivity”; as for “QVQLVESVGGLVQAGGSLRLSSAASGFTFTHYAMGWYRQAPGKERELVAAISTSGGSTYYADSVKGRFTISRDNAKNTVYLQMNSLKPEDTAVYYCAARRDGWVQWGYYYWGQGTQVTVSS”, “low polyreactivity”; as for “QVQLVESVGGLVQAGGSLRLSSAASGYIFFGNAMGWYRQAPGKERELVAAIRWRGTSTYYADSVKGRFTISRDNAKNTVYLQMNSLKPEDTAVYYCAKDGRVHSPYDYWGQGTQVTVSS”, “low polyreactivity”.
With “QVQLVESVGGLVQAGGSLRLTCAASGRIFEINTMGWYRQAPGKERELVAAISRGGGSTYYADSVKGRFTISRDNAKNTVYLQMNSLKPEDTAVYYCAAASYYVEGDYWGQGTQVTVSS” the entry was “low polyreactivity”.
Turning to “QVQLVESVGGLVQAGGTRRLSCDASGRTFGLNVMGWYRHAPGKERELVASIRNIGGSTYYADSVKWRFTISCDNAKNTVYLQMNSLKPEDTAVYYCAADYNLVVQGYDYWGQGTQVTVSS”, the “polyreactivity (PSR sort gate)” value is reported as “high polyreactivity”.
As for “QVQLVESVGGLVQAGRILRISCAASGFTLYYYDKGWYRQAPGKQRELVAGISSGDSTYYADSLKGRFTISRDNAKNTVYLHMNSLKPEDTAVYYCATGDSLYYRYWSNNYWGQGTQVTVSS”, the entry is “high polyreactivity”; as for “QVQLVESVGGLVQAGRSLRLSCAASGSIFLRNAMGWYRQPPGKERELVASITWNGASTSYADSVKGRFTISRDNAKNTVYLQMNSLKPEDTAVYYCAAVTVQDSNLKYGYWGQGTQVTVSS”, “low polyreactivity”.
With “QVQLVESVGGLVQAGVSLRLSSAASGSTLKQYAMGWFRQSPGKERELVGAITRSGSSTYYADSVKGRFTISRDNAKNTVYLPMNRLKREDTAVYYCDVGCWKGDYYWGLGTQVTVSS” the entry was “high polyreactivity”; with “QVQLVESVGGLVQEGGTLRLSCAASGSTFEVYTMGWYRQAPGKERELVAAITKNGGTTYYADSVKGRFTISRDNAKNTVYLQMNSLKPEDTAVYYCAVYYYSGYYYWDYYWGQGTQVTVSS”, “low polyreactivity”.
With “QVQLVESVGVLVQEGGSLRLSSAASGGSLPRYAMGWYRQAPGKEMELVAVITRGGSTYYADSVKGRFTISRDNAKNTVYLQMIRLIPEDTAVYYFAKYRYQTGIFYYWGQGTQVTVSS” the entry was “high polyreactivity”; with “QVQLVESVLGLVQAGGSLRFSCAASGSTIVRYAMVWYRPAPGKERELVAAISSSGATTYYADSVKGRFTISRDNAKNTVYLQMNSLKPEYTAVYYCDKYCRATRGLDNYWGQGTQVTVSS”, “high polyreactivity”; with “QVQLVESVRGLVQAGGSLPLSCAASGIIISSYAIGWYRQAPGKESEMVADIRSGGSTNYADSVKGRFTISRDNAKNNVYLQMNSLKPEDTAVYYCIADTFQWWDIADVYVIVKYGYWGQGTQVTVSS”, “low polyreactivity”.
“QVQLVESVRGLVQAGGSLRLSCDASAFIFRSYAMGWNRQAPGKERELVAVISRRGVNTHYADSVKGRFSISRDNAKNTVYLQINSLKPEDTAVYYCAAELSYRGYPYDYWGQGTQVTVSS”: the “polyreactivity (PSR sort gate)” value is recorded as “high polyreactivity”.
On to “QVQLVESVVGLVQEGGSLRFSCAASASTLDSNPIGWYRQAPGKEREVVAAITSGGSTYYADSVKGRFTISRDNAKNTVYLQMNSLKPEDSAVYYCATAWYLGRYRSLGYWGQGTQVTVSS”, for which the “polyreactivity (PSR sort gate)” value is on record as “high polyreactivity”.
As for “QVQLVESVVGLVQPRGSLRLSSASSGRTFRQYAMGRYRQAPGKERDLVAAIRTNGGRTYYADSVKGRFTISRDNAKNTVYLQMNSQKPEDTAVYYCAVYAFVQGVLFDYWGQGTQVTVSS”, the entry is “high polyreactivity”; as for “QVQLVESVVVLVQAGGSLRLSCAASGFTIPFYAMGWYRQARGKERDLVAAISQSGVRTYYADSVKGRFTISRDNAKYTVYLQMKSLKPEDTAVYFCNVAYRGALDIHSYWYPSEYWGQGTQVTVSS”, “high polyreactivity”.
As for “QVQLVESWGALVQAGGSLRLSCAASGSTFGSNAMGWYRQAPGKERELVAAITYSGGRTYYADSVKGRFTISRDNAKNTVYLQMNSLTPEDTAVYYCAATFGFFYYQYDYWGQGTQVTVSS”, the entry is “low polyreactivity”; as for “QVQLVESWGALVQAGGSLRLSCAASGSTFGYYAMGWYRQAPGKDRELVAAITRSGGSTSYADSVTGRFTISRDNAKNTVYLQMNSLKPEATAVYYCAARFYRPYYARQGYNYWGQGTKVTVSS”, “high polyreactivity”.
With “QVQLVESWGGLFQAGGRLRLSSAASGFTFPRYAMGWYRHSPGKERELVAAISRGGSTNYADSVKGRFTISRDNAMNTVYLQMNSLKPEVTAVYYCNVRLEYRYYRGDYWGQGTQVTVSS” the entry was “high polyreactivity”.
As for “QVQLVESWGGLVQAGGSHRLSCSASGTILGDYGMGWYRQAPGKEREMVGAITWNGDSTYYADSVKGRFTISRDNAKNTVYLQMNSLKPEDTAVYYCAADLKDYKYYPWYGYWGQGTQVTVSS”, the “polyreactivity (PSR sort gate)” value is given as “low polyreactivity”.
As for “QVQLVESWGGLVQAGGSLHLSCAASGSTFQEYAMGWYRQAPGKERELVASIRWSGGRTYYADSVKGRFTISRDNAKNTVYLQMNSLKPEDTAFYYCAAGQWWYQVRFDYWGQGTQVTVSS”, the entry is “low polyreactivity”.
With “QVQLVESWGGLVQAGGSLRLRCAASGRTIDYNAIGWYRQAPRKEREFVADISNGGTTSYADSVKGSFTFSRDNAKNTVYLHMNSLKPEVTAVYYCATLYDWSSFANSYWYFGWEEDYWGQGTQVTVSS”, the “polyreactivity (PSR sort gate)” value is listed as “low polyreactivity”.
With “QVQLVESWGGLVQAGGSLRLSCAASGHTFREKAMGWYRQAPGKERELLAAITSSGRTYYADSVKGRFTISRDNAKNTVYLQMNRQKPEDTAVYYCAADYWYVYPRYNPGDYWGQGSQVTVSS” the entry was “high polyreactivity”; with “QVQLVESWGGLVQAGGSLRLSCAASGIIFVSNAMGWYRQATGKERELVATINWSDDSTYYADSVKGRFTISRDNAKNTVYLQMNSLKPEDTAVYYCAADDYAVDYSYYYNDEYDYWGQGTQVTVSS”, “low polyreactivity”.
With “QVQLVESWGGLVQAGGSLRLSCAASGIIRSNAMGWYRQAPGKERELVAVISSSGGRTYYADSVKGRFTISRDNAKNTVYLQMNSLKPEDTAVYYCAAQVQVGAFSYYYWGQGTQVTVSS” the entry was “high polyreactivity”; with “QVQLVESWGGLVQAGGSLRLSCAASGITFTVYAMGWYRQPPGKERELVAAITRGTSTYADSVKGRFTISRDNAKNTVYLQMNSLKPEDTAVYYCAARSSPWYTRYRSSELFDYWGQGTQVTVSS”, “high polyreactivity”; with “QVQLVESWGGLVQAGGSLRLSCAASGLIFNYYAMGWYRQAPGKERELVAAITTGGGTYYADSVKGRFTISRDNAKNTVYLQMNSLKPEDTAVYYCAAVWGNRSRYPGHYYWGQGTQVTVSS”, “high polyreactivity”.
As for “QVQLVESWGGLVQAGGSLRLSCAASGRIFANYGMGWYRQAPRKERELVAAIDRSGGTTFYADSVKGRFTISRDNAKNTVYLQMNSLKPEDTAVYYCAAALSYWYYAYYYWGQGTQVTVSS”, the entry is “low polyreactivity”.
Take “QVQLVESWGGLVQAGGSLRLSCAASGRIFKLYAMGWYRQAPGKERELVAGINWSGGTTYYAESVKGRFTISRDNAKNTVYLQMNSLKPEDTAVYYCAARTRNGAGYYWGQGTQVTVSS”: the “polyreactivity (PSR sort gate)” value is listed as “high polyreactivity”.
With “QVQLVESWGGLVQAGGSLRLSCAASGRTFDRYDMGWYRQAPGKERELVATISSSGGSTYYADSVKGRFTISRDNAKNTVYLQMNSLKPEDTAVYYCAADPSGDYWGQGTQVTVSS” the entry was “low polyreactivity”; with “QVQLVESWGGLVQAGGSLRLSCAASGRTFVTNAMGRYRQAPGTERELVAAISGSGGSTYYADSVTGRFTISRDNAKNTVYLQMNSLKPEDTAVYYCATSYSLGYARYGYWGQGTQVTVSS”, “high polyreactivity”; with “QVQLVESWGGLVQAGGSLRLSCAASGSTFFSYAMGWYRQAPGKERELVAGIEWNGGDTNYADSVKGRFTISRDNAKNTVYLQMNSRKPVDTAVYYCATDYSYPGPFRRRERFDYWGQGTQVTVSS”, “low polyreactivity”.
As for “QVQLVESWGGLVQAGGSLRLSCAASGSTFIGYAMGWYRQAPGKERELVAAISWSGGSTYYADSVKGRFTISRDNAKNTVYLQMNSLKPEDTAVYYCAASQYVQGHKYYYWGQGTQVTVSS”, the entry is “high polyreactivity”.
In the case of “QVQLVESWGGLVQAGGSLRLSCAASGSTFIQNAMGWYRQAPGKERELVAAITSGGGTNYADSVKGRFTISRDNAQNTVYLQMNSLKPEDTAVYYCAAEPFNYDDFWFGWEYQYEYWGQGTQVTVSS”, the “polyreactivity (PSR sort gate)” value was “low polyreactivity”.
Take “QVQLVESWGGLVQAGGSLRLSCAASGSTFRGNAMGWYRQAPGTERELVAAITRRGGSTYYADSVKGRFTISRDNAKNTVYLQMNSLKPEDPAVYYCAKVGRETEYDYWGQGTQVTVSS”: the “polyreactivity (PSR sort gate)” value was “high polyreactivity”.
With “QVQLVESWRGLVQAGGSLRLSCAASGNTFRWYAMGWYRQEPGKEREFVADITVRGGSTYYADSLKGRFTISRDNAKNTVYLQMNSLKPEQTAVYYCAVDFRRYPGFDYWGQGTQVTVSS” the entry was “low polyreactivity”.
“QVQLVETAGGLVQAGGSLRLSSAASGRIFPFNTMGWSRQAPGKERELVATITYRGDRTYYADSVKGRFTISRDNAKNTVYLQMNSLKPEDTGVYYCNARGTYYLGRYYWGQGTQETVSS”: the “polyreactivity (PSR sort gate)” value is reported as “high polyreactivity”.
“QVQLVETCGGLVHAGGSLRLSCAASGSTFVDNSMGRYRQAPGKERELGADISWSGGSTYYADSVKGRFTNSRDNAKTTVYLQMNSLKPQDTAVYYCAAYRNDYGYWTYVYYTDDYDYWGQGTQVTVSS”: the “polyreactivity (PSR sort gate)” value was “low polyreactivity”.
